From patent US20230340607A1 (UNIVERSITY OF PITTSBURGH OF THE COMMONWEALTH SYSTEM OF …, published 2023)

Columns and labels:
integrin β1 = molecular target: T1, integrin β1 (UniProt P05556 21-798); assay: co-immunoprecipitation with anti-RAD51AP1 antibody from T47D cell lysate, immunoblot
T1 construct: also called ITGB1; integrin B1
Protocol: (§1) To identify the key molecules important for RAD51AP1-DYRK4 to modulate MEK signaling, the RAD51AP1 interactants were investigated with the Entrez Gene database. […] Immuno-precipitation was performed using the RAD51AP1 antibody in the T47D cells overexpressing E9-E2 or wtRAD51AP1.
(§2) Immunoprecipitation. The cells were seeded in 10 cm² dishes with 200 ng/ml for one week. After one week doxycycline treatment, doxycycline-induced T47D OE cells were freshly harvested and lysed in NETN-400 buffer ([…] Tris-HCL, pH 8.0, […] NaCl, 1 mM EDTA, and 0.5% Nonidet P-40) for 25 minutes on ice and then centrifugated for 25 minutes at 14,500 rpm. The supernatants were diluted with the same buffer without NaCl (NETN-0) to obtain a final concentration of NaCl at 150 mM and incubated with indicated antibodies for 2 hours at 4° C., and then added protein-G beads (Santa Cruz) overnight. The beads were washed three times with cell lysis buffer and the precipitated proteins were subjected to western blot analysis.

c-Src = c-Src (UniProt P12931 2-536); assay: as above
Protocol: as §1, §2

T1 sequence (P05556 21-798 limits assumed): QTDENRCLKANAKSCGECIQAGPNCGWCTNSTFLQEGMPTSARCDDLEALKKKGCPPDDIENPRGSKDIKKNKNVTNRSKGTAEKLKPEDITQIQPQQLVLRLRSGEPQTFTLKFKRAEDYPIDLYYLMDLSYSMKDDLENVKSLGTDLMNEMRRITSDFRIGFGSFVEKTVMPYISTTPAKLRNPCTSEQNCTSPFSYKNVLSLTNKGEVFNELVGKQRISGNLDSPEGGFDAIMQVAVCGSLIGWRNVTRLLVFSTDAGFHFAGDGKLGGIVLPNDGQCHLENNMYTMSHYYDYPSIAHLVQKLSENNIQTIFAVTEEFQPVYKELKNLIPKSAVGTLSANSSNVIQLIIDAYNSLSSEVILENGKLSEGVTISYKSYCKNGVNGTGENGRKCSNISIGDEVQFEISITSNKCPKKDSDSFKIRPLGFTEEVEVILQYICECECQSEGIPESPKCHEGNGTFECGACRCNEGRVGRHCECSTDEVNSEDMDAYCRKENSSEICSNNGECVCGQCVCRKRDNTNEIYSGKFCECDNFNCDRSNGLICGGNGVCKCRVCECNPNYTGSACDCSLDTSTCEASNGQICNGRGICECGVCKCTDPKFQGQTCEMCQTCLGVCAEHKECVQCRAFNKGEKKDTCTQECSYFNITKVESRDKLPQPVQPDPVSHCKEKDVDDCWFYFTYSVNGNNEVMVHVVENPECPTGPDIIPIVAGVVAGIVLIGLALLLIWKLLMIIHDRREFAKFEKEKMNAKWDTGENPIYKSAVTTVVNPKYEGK

B1: RAD51AP1-DYRK4 fusion protein (E9-E2 variant) (other)
chain: MVRPVRHKKPVNYSQFDHSDSDDDFVSATVPLNKKSRTAPKELKQDKPKPNLNNLRKEEIPVQEKTPKKRMALDDKLYQRDLEVALALSVKELPTVTTNVQNSQDKSIEKHGSSKIETMNKSPHISNCSVASDYLDLDKITVEDDVGGVQGKRKAASKAAAQQRKILLEGSDGDSANDTEPDFAPGEDSEDDSDFCESEDNDEDFSMRKSKVKEIKKKEVKVKSPVEKKEKKSKSKCNALVTSVDSAPAAVKSESQSLPKKVSLSSDTTRKPLEIRSPSAESKKPKWVPPGLKWMLKSQGNVI
notes: Expressed from a doxycycline-inducible lentiviral vector in T47D cells (co-IP, western blot), or endogenous in MDAMB361 cells (western blot); also called E9-E2 protein; E9E2 fusion
Integrin β1
  binding result: no binding
c-Src
  binding result: no binding
